For this series, the system named is Asp97. Put plainly: UV-vis. The conditions noted are these: 150 mM NaCl; 50 mM Tris-HCl; Dark/ground state, retinal-bound, detergent-solubilised purified protein.

Turning to “HSG119 rhodopsin (blue-light absorbing proteorhodopsin homologue) (uncultured marine bacterium (metagenome sample HSG070119-03, seawater near King Sejong Station, King George Island, Antarctica))”, the pKa result was “around 5.8 and 8.0”.
